In CN112646041A:

Target: 人CD64 ECD-his抗原(SINO BIOLOGICAL，货号:10256-H08H) (human) (UniProt P12314)
Experiment: ELISA, antibody coated at 67 to 0.0043 nM, CD64 ECD-his at 1 μg/mL

EC50: 1.32 nM
Substance: hIgG1对照组(SIGMA，货号I4506) (antibody)
